In patent US20090082262A1 (published 2009):
*: point of attachment. Nonanoyl = CCCCCCCCC(=O)*

Legend:
[1] = target: T1, chemokine receptor 5 (CCR5) (human, UniProt P51681 1-352); experiment: competition with [125I]-MIP-β1, CHO-K1 membranes
T1 construct: whole, on cells
Description: (§1) For determination of its binding properties, CHO-K1 cells were used which were stably transfected with the chemokine receptors CCR1, CCR3, CCR5. Therefore, crude membrane extracts prepared from the CHO-K1 cell lines expressing the various GPC were used in radioligand binding assays. Competition binding assays were performed in Minisorp tubes (Nunc, Roskilde, Denmark) in a total volume of 100 μl containing 0.1 nM iodinated ligand as tracer, variable concentrations of competitors and defined amount of membranes. Total binding was measured in the absence of competitor and non-specific binding was measured with a 100-fold excess, of unlabelled ligand. Samples were incubated for 90 minutes at 25° C. then filtered through GF/B filters presoaked in 0.3% polyethylenenimine. Filters were counted in a gamma scintillation counter (Packard). Binding parameters were determined with the PRISM software (Graphpad software, San Diego, Calif.) using non-linear regression applied to a one site competition model.
FIG. 6 represents the compound PHC-1, full size HCC-1 and reference chemokines tested on CCR1, CCR3 and CCR5. Competition binding assays were performed with [¹²⁵I]-RANTES for CCR1, [¹²⁵I]-Eotaxin for CCR3 and [¹²⁵I]-MIP-1, for CCR5. PHC-1, HCC1, MIP-1, RANTES, Eotaxin and MCP-4 were used as competitors. FIGS. 3 and 4 show the binding of additional chemokine compounds of the invention to the CCR5 and CCR1 respectively. Competition assays were performed with [¹²⁵I]-MIP-β1 for CCR5, and [¹²⁵I]-MIP-α1 for CCR1. Each of the chemokine compounds tested was capable of binding both the CCR5 and CCR1 receptors.

[2] = target: T1, chemokine receptor 5 (CCR5); experiment: radioligand competition binding as in Example 4
Description: as §1
FIG. 6 represents the compound PHC-1, full size HCC-1 and reference chemokines tested on CCR1, CCR3 and CCR5. Competition binding assays were performed with [¹²⁵I]-RANTES for CCR1, [¹²⁵I]-Eotaxin for CCR3 and [¹²⁵I]-MIP-1, for CCR5. PHC-1, HCC1, MIP-1, RANTES, Eotaxin and MCP-4 were used as competitors. […]

[3] = target: T2, chemokine receptor 1 (CCR1) (UniProt P56482 1-355); experiment: radioligand competition binding on CCR1
T2 sequence (P56482 whole entry): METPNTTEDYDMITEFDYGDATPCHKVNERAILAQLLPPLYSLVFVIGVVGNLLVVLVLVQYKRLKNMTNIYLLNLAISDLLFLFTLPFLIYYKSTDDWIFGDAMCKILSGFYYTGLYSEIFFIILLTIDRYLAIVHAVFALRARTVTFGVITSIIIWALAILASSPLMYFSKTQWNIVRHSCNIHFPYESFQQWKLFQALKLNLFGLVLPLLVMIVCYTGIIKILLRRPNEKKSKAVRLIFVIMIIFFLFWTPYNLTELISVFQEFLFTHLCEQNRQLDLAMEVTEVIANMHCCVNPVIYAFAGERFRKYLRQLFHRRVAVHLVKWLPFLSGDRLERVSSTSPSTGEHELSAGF

[4] = target: T2, chemokine receptor 1 (CCR1); experiment: competition with 125I-Rantes binding to CCR1
[5] = target: T2, chemokine receptor 1 (CCR1); experiment: competition with 0.1 nM 125I-Rantes, membranes of CHO-K1 cells expressing CCR1, filtration
chemokine receptor CCR3 = target: T3, chemokine receptor CCR3 (UniProt P51677 1-355, limits assumed); experiment: competition with 0.1 nM 125I-Eotaxin, membranes of CHO-K1 cells expressing CCR3, filtration
T3 construct: whole, on cells
T3 sequence (looked up): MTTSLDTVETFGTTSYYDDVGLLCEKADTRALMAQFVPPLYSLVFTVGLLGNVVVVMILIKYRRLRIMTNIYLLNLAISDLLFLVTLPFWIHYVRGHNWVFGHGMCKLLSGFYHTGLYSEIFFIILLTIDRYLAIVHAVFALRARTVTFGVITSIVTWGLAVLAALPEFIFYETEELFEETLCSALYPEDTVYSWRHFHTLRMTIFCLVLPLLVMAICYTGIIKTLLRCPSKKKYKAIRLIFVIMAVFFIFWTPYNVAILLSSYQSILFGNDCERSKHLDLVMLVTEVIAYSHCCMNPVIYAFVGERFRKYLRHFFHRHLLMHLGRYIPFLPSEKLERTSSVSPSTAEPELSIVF
Description: as §1
The processed chemokine PHC-1 was a strong competitor of ¹²⁵I-Rantes binding to CCR1 with half-maximal inhibitory concentration of 2.3±0.7 nM. (Ki±SEM).

T1 sequence (P51681 whole entry): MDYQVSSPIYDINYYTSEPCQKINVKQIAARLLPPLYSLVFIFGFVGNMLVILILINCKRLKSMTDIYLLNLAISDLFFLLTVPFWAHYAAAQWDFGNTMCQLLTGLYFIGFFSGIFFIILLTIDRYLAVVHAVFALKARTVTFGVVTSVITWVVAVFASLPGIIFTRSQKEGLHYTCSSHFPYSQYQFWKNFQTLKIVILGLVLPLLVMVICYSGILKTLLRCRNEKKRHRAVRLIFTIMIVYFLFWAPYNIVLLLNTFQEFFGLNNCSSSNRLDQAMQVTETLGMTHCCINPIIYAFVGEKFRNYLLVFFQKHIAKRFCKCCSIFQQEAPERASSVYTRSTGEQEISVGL

B1: HCC-1[8-74] (ligand)
chain: RGPYHPSECCFTYTTYKIPRQRIMDYYETNSQCSKPGIVFITKRGHSVCTNPSDKWVQDYIKDMKEN
notes: Synthetic, oxidatively folded
B1: binds [1].

B2: HCC-1[7-74] (ligand)
chain: SRGPYHPSECCFTYTTYKIPRQRIMDYYETNSQCSKPGIVFITKRGHSVCTNPSDKWVQDYIKDMKEN
notes: Synthetic, oxidatively folded
B2: binds [1].

B3: HCC-1[10-74] (ligand)
chain: PYHPSECCFTYTTYKIPRQRIMDYYETNSQCSKPGIVFITKRGHSVCTNPSDKWVQDYIKDMKEN
notes: Synthetic, oxidatively folded
B3: binds [1].

B4: NNY-HCC-1[10-74] (ligand)
chain: Nonanoyl-PYHPSECCFTYTTYKIPRQRIMDYYETNSQCSKPGIVFITKRGHSVCTNPSDKWVQDYIKDMKEN
modifications: ends and bridges not checked
notes: An N-terminally modified analog of HCC-1[10-74]; also called nonanoyl-HCC-1[10-74]
B4: binds [2].

B5: HCC-1[11-74] (ligand)
chain: YHPSECCFTYTTYKIPRQRIMDYYETNSQCSKPGIVFITKRGHSVCTNPSDKWVQDYIKDMKEN
notes: Synthetic, oxidatively folded
B5: binds [1].

B6: full size HCC-1 (HCC-1, residues 1-74) (ligand)
chain: TKTESSSRGPYHPSECCFTYTTYKIPRQRIMDYYETNSQCSKPGIVFITKRGHSVCTNPSDKWVQDYIKDMKEN
notes: The 74-residue chemokine, Mr 8673; also called full-length HCC-1; HCC-1, 1-74
Binder B6 has a Ki [3] of 100 nM.

B7: PHC-1 (HCC-1[9-74]) (ligand)
chain: GPYHPSECCFTYTTYKIPRQRIMDYYETNSQCSKPGIVFITKRGHSVCTNPSDKWVQDYIKDMKEN
notes: Purified from human hemofiltrate or made by tryptic digestion of HCC-1 1-74; also called processed chemokine PHC-1; HCC-1, residues 9-74
B7 showed a Ki [4] of 23000 nM, an IC50 [5] of 2.3 nM and an IC50 (chemokine receptor CCR3) of 78 nM.
